The source of these data is US20250179205A1 (Hoffmann-La Roche, published 2025).

The target of experiment [1] is T1, human CD40 (human, UniProt P25942 21-277). The experiment is described as follows: cell-based or functional assay.
The target in experiment [2] is T2, mouse fibroblast activation protein (mFAP) (mouse, UniProt P97321 1-761).
T2 construct: expressed on transfected NIH/3T3-mFAP clone 26 cells; also called murine FAP; mouse FAP
The experiment is described as follows: flow cytometry on NIH/3T3-mFAP cells (3T3_mFAP), PE-labelled anti-human IgG Fcgamma F(ab')2 secondary, MFI baseline corrected. The protocol: (§1) NIH/3T3-huFAP clone 19 and NIH/3T3-mFAP clone 26 were generated by the transfection of the mouse embryonic fibroblast NIH/3T3 cell line (ATCC CRL-1658) with the expression vector pETR4921 to express under 1.5 μg/mL Puromycin selection huFAP or mFAP, respectively.
(§2) NIH/3T3-huFAP, NIH/3T3-mFAP or NIH/3T3-wt cells were cultured with 1× Dulbecco's Modified Eagle's Medium (DMEM) (Gibco, Cat. No. 42430-025) supplemented with 10% Fetal Bovine Serum (FBS) (life technologies, Cat. No. 16140, Lot No. 1797306A). For the NIH/3T3-huFAP and NIH/3T3-mFAP cells 1.5 μg/mL Puromycin (Gibco, Cat. No. A11138-03) was added to the medium for selection of FAP-expressing cells. NIH/3T3 cells were removed from the plate by using enzyme-free Cell Dissociation Buffer (Gibco, Cat. No. 13151014). 0.3×10⁵ NIH/3T3-huFAP clone 19, NIH/3T3-mFAP clone 26 or NIH/3T3-wt were added in 200 μl of 1×DMEM 10% FBS to each well of a round-bottom 96-well plate (Greiner Bio-One, CELLSTAR®, Cat. No. 650185). Plates were centrifuged 5 minutes at 1700 rpm and supernatants were flicked off. Cells were washed once with 200 μL of 4° C. cold FACS buffer (eBioscience, Cat. No. 00-4222-26). All samples were resuspended in 50 μL/well of 4° C. cold FACS buffer containing the bispecific antigen binding molecules (primary antibody) or isotype control antibody DP47 at the indicated range of concentrations (in duplicates) and incubated for 120 minutes at 4° C. Afterwards the cells were washed three times with 200 μL 4° C. cold FACS buffer. Cells were further stained with 25 μL/well of 4° C. cold secondary antibody solution (1:50 dilution of secondary antibody) containing R-Phycoerythrin (PE) conjugated AffiniPure F(ab′)₂ Fragment Goat Anti-Human IgG, Fcγ Fragment Specific (Jackson ImmunoResearch, Cat. No. 109-116-098) and incubated for 60 minutes at 4° C. in the dark. Cells were washed with 200 μl FACS buffer and resuspended in 85 μL/well FACS-buffer containing 0.2 μg/mL DAPI (Roche, Cat. No. 10236276001) and acquired the same day using 5-laser LSR-Fortessa (BD Bioscience with DIVA software). Data analysis was performed using the FlowJo version 10 software (FlowJo LLC).

The target of experiment [3] is T1, human CD40. Nature of the experiment: cell-based or functional assay. This is another data set of the same source.
In experiment [4] the target is T1, human CD40. The experiment is described as follows: flow cytometry, Daudi cells, PE anti-human Fc F(ab')2. As to the method:
The binding to cell surface CD40 was tested using Daudi cells, a human B lymphoblast cell line with high expression levels of human CD40 (ATCC CCL-213). Daudi cells were cultured with 1× Dulbecco's Modified Eagle's Medium (DMEM) (Gibco, Cat. No. 42430-025) supplemented with 10% Fetal Bovine Serum (FBS) (life technologies, Cat. No. 16140, Lot No. 1797306A). 0.3×10⁵ Daudi cells were added in 200 μl of 1×DMEM with 10% FBS to each well of a round-bottom 96-well plate (Greiner Bio-One, CELLSTAR®, Cat. No. 650185). Plates were centrifuged 5 minutes at 1700 rpm and supernatants were flicked off. Cells were washed once with 200 μL of 4° C. cold FACS buffer (eBioscience, Cat. No. 00-4222-26). All samples were resuspended in 50 μL/well of 4° C. cold FACS buffer containing the bispecific antigen binding molecules (primary antibody) or isotype control antibody DP47 at the indicated range of concentrations (in duplicates) and incubated for 120 minutes at 4° C. Afterwards the cells were washed three times with 200 μL 4° C. cold FACS buffer. Cells were further stained with 25 μL/well of 4° C. cold secondary antibody solution (1:50 dilution of secondary antibody) containing R-Phycoerythrin (PE) conjugated AffiniPure F(ab′)₂ Fragment Goat Anti-Human IgG, Fcγ Fragment Specific (Jackson ImmunoResearch, Cat. No. 109-116-098) and incubated for 60 minutes at 4° C. in the dark. Cells were washed with 200 μl FACS buffer and resuspended in 85 μL/well FACS-buffer containing 0.2 μg/mL DAPI (Roche, Cat. No. 10236276001) and acquired the same day using a 5-laser LSR-Fortessa (BD Bioscience with DIVA software). Data analysis was performed using the FlowJo version 10 software (FlowJo LLC).
On the technique in general: Flow cytometry measures light scatter and fluorescence of single cells or particles in a stream.

Experiment [5] concerns the target T3, human fibroblast activation protein (huFAP) (human, UniProt Q12884 1-760).
T3 construct: expressed on transfected NIH/3T3-huFAP clone 19 cells; also called human FAP
The experiment is described as follows: flow cytometry on NIH/3T3-huFAP clone 19 cells, PE-labelled anti-human IgG Fcgamma F(ab')2 secondary, MFI baseline corrected. As to the method:
as §1
as §2, with “Data analysis was performed using the FlowJo version 10 software (FlowJo LLC).” left out

For experiment [6], the target named is T3, human fibroblast activation protein …. Nature of the experiment: flow cytometry, NIH/3T3-huFAP clone 19 cells, PE anti-human Fc F(ab')2. As to the method: as §1, §2
Experiment [7] concerns the target T4, His-tagged human dimeric FAP (recombinant FAP_ECD) (human, UniProt Q12884 27-760).
T4 construct: also called hu FAP ectodomain + poly-lys-tag + his6-tag
Nature of the experiment: SPR (Biacore T200), His-tagged dimeric huFAP ECD captured by anti-His, antibody as analyte, 1:1 fit (avidity). As to the method:
The capacity of the bispecific constructs to bind human FAP was assessed by surface plasmon resonance (SPR). All SPR experiments were performed on a BIACORE® T200 (BIACORE®) at 25° C. with HBS-EP as running buffer (0.01 M HEPES pH 7.4, 0.15 M NaCl, 3 mM EDTA, 0.005% Surfactant P20, (BIACORE®).
His-tagged human dimeric FAP (recombinant FAP_ECD) was captured on a CM5 chip (GE Healthcare) immobilized with anti-His antibody (Qiagen Cat. No. 34660) by injection of 500 nM huFAP for 60 s at a flow rate of 10 uL/min, 10 nM murine FAP for 20 s at a flow rate of 20 uL/min and 10 nM cynoFAP for 20 s at a flow rate of 20 uL/min. Immobilization levels for the anti-His antibody of up to 18000 resonance units (RU) were used. Following the capture step, the bispecific antibodies as well as control molecules were immediately passed over the chip surface at a concentration ranging from 0.78-100 nM with a flow rate of […] for 280 s and a dissociation phase of 180 s. Bulk refractive index differences were corrected for by subtracting the response obtained in a reference flow cell, where no FAP was immobilized. Avidity was determined using the Langmuir 1:1 curve fitting. For bivalent binding the same 1:1 fitting was used leading to an apparent KD value.
A general note: Surface plasmon resonance follows binding to a sensor surface in real time, without labels.

T1 sequence (P25942 21-277 limits assumed): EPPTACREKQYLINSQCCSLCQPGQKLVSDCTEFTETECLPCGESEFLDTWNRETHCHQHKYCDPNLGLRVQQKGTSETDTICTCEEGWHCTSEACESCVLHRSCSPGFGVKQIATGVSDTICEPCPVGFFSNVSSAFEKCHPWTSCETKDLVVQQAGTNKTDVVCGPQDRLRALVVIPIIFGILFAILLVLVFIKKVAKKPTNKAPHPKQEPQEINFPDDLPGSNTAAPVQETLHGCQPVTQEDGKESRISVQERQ
T2 sequence (P97321 whole entry): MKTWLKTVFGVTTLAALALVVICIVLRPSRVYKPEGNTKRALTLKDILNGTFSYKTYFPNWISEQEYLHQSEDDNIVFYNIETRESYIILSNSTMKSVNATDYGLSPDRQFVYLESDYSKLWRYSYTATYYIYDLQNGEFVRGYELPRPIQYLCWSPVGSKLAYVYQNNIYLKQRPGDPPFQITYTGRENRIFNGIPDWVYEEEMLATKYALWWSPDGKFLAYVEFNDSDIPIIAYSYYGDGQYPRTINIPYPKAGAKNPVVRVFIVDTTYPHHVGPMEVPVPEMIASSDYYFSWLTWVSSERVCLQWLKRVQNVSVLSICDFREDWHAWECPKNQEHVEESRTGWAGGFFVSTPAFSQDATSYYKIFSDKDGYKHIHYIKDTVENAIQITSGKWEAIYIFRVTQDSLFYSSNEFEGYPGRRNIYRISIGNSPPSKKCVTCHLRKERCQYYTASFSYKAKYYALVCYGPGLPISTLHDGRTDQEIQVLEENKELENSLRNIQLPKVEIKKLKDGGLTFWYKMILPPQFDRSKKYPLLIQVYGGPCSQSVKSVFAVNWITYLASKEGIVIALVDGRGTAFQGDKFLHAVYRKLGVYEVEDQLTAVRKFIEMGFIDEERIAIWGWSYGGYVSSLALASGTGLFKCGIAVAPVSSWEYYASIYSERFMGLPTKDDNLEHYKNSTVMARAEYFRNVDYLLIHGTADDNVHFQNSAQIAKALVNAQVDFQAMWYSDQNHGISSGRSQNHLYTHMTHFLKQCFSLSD

B1: P1AD4574 CD40 × DP47 (4 + 1) (bispecific antibody)
heavy 1: not shown
heavy 2: not shown
light: DIQMTQSPSSLSASVGDRVTITCRSSQSLVHSNGNTFLHWYQQKPGKAPKLLIYTVSNRFSGVPSRFSGSGSGTDFTLTISSLQPEDFATYFCSQTTHVPWTFGQGTKVEIKRTVAAPSVFIFPPSDEQLKSGTASVVCLLNNFYPREAKVQWKVDNALQSGNSQESVTEQDSKDSTYSLSSTLTLSKADYEKHKVYACEVTHQGLSSPVTKSFNRGEC
notes: also called huCD40-DP47
With B1, the “EC50, activation of HEK-Blue CD40L cells (SEAP) with murine FAP-coated Dynabeads” value with human CD40 [1] came to 0.421 nM. The binding result in experiment [2] and in experiment [5] was “no binding (tested: 500 nM)” each time. The “EC50, activation of human Daudi cells (CD70 expression) with FAP-coated Dynabeads” value in the experiment with human CD40 [3] stood at 0.166 nM. Further, in the experiment with human CD40 [4], a half-maximal response (EC50) required 0.031 nM.

B2: P1AE0192 CD40 × FAP (28H1) (1 + 1) Crossmab (bispecific antibody, human IgG1, kappa, L234A L235A)
heavy 1: not shown
heavy 2: EVQLVESGGGLVQPGGSLRLSCAASGYSFTGYYIHWVRQAPGKGLEWVARVIPNAGGTSYNQKFKGRFTLSVDNSKNTAYLQMNSLRAEDTAVYYCAREGIYWWGQGTLVTVSSASTKGPSVFPLAPSSKSTSGGTAALGCLVEDYFPEPVTVSWNSGALTSGVHTFPAVLQSSGLYSLSSVVTVPSSSLGTQTYICNVNHKPSNTKVDEKVEPKSCDKTHTCPPCPAPEAAGGPSVFLFPPKPKDTLMISRTPEVTCVVVDVSHEDPEVKFNWYVDGVEVHNAKTKPREEQYNSTYRVVSVLTVLHQDWLNGKEYKCKVSNKALGAPIEKTISKAKGQPREPQVCTLPPSRDELTKNQVSLSCAVKGFYPSDIAVEWESNGQPENNYKTTPPVLDSDGSFFLVSKLTVDKSRWQQGNVFSCSVMHEALHNRFTQKSLSLSPGK
light 1: DIQMTQSPSSLSASVGDRVTITCRSSQSLVHSNGNTFLHWYQQKPGKAPKLLIYTVSNRFSGVPSRFSGSGSGTDFTLTISSLQPEDFATYFCSQTTHVPWTFGQGTKVEIKRTVAAPSVFIFPPSDRKLKSGTASVVCLLNNFYPREAKVQWKVDNALQSGNSQESVTEQDSKDSTYSLSSTLTLSKADYEKHKVYACEVTHQGLSSPVTKSFNRGEC
light 2: EVQLLESGGGLVQPGGSLRLSCAASGFTFSSHAMSWVRQAPGKGLEWVSAIWASGEQYYADSVKGRFTISRDNSKNTLYLQMNSLRAEDTAVYYCAKGWLGNFDYWGQGTLVTVSSASVAAPSVFIFPPSDEQLKSGTASVVCLLNNFYPREAKVQWKVDNALQSGNSQESVTEQDSKDSTYSLSSTLTLSKADYEKHKVYACEVTHQGLSSPVTKSFNRGEC
notes: monovalent for CD40 and for FAP; also called CD40 × FAP 1 + 1; 1+1 format
For B2, the EC50 (read off the curve) – broadly, the concentration needed to bring the measured effect to its halfway point – in experiment [2] is roughly 1 nM. For the same molecule, in experiment [6], a half-maximal response (EC50) required 1.15 nM. In addition, in experiment [7], the Kd was determined as 2.2 nM; the koff (in general, a measure of how fast the partners let go of each other) came out at 0.00145 s⁻¹; the kon (usually the second-order rate constant of association) was determined as 663000 M⁻¹ s⁻¹.

B3: P1AD4455 CD40 × FAP (28H1) (4 + 2) (bispecific antibody, human IgG1, kappa, L234A L235A)
heavy: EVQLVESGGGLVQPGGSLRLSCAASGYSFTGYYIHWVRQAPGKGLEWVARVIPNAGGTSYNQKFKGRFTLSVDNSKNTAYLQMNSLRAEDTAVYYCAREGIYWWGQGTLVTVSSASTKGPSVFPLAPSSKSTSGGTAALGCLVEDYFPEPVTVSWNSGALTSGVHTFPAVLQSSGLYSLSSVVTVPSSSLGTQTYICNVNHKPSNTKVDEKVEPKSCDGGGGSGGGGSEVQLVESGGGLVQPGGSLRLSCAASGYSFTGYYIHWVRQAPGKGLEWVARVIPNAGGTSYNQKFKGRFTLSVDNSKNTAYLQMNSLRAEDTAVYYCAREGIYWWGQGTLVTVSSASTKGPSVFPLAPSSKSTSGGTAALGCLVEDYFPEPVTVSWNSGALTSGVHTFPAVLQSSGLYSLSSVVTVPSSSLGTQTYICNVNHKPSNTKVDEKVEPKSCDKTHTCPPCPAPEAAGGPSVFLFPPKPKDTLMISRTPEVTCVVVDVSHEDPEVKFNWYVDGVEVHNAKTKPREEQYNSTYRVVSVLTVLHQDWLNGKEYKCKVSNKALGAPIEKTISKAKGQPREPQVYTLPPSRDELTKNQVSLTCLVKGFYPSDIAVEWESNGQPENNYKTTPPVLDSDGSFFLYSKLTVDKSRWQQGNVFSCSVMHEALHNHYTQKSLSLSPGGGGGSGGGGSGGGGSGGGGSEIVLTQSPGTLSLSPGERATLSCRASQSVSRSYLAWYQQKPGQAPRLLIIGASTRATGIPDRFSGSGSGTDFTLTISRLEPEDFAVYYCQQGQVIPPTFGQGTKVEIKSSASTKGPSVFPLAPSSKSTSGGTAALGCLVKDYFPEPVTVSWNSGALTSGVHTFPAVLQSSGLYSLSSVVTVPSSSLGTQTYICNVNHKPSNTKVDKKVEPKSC
light 1: DIQMTQSPSSLSASVGDRVTITCRSSQSLVHSNGNTFLHWYQQKPGKAPKLLIYTVSNRFSGVPSRFSGSGSGTDFTLTISSLQPEDFATYFCSQTTHVPWTFGQGTKVEIKRTVAAPSVFIFPPSDRKLKSGTASVVCLLNNFYPREAKVQWKVDNALQSGNSQESVTEQDSKDSTYSLSSTLTLSKADYEKHKVYACEVTHQGLSSPVTKSFNRGEC
light 2: EVQLLESGGGLVQPGGSLRLSCAASGFTFSSHAMSWVRQAPGKGLEWVSAIWASGEQYYADSVKGRFTISRDNSKNTLYLQMNSLRAEDTAVYYCAKGWLGNFDYWGQGTLVTVSSASVAAPSVFIFPPSDEQLKSGTASVVCLLNNFYPREAKVQWKVDNALQSGNSQESVTEQDSKDSTYSLSSTLTLSKADYEKHKVYACEVTHQGLSSPVTKSFNRGEC
notes: tetravalent for CD40, bivalent for FAP; also called CD40 × FAP 4 + 2; huCD40-28H1
B3: the “EC50 (read off the curve)” value in experiment [2] and in experiment [5] was roughly 4 nM throughout. The EC50 (usually the concentration needed to bring the measured effect to its halfway point) in experiment [6] came to 3.64 nM.

B4: P1AD4465 CD40 × DP47 (4 + 2) (bispecific antibody)
heavy: not shown
light 1: DIQMTQSPSSLSASVGDRVTITCRSSQSLVHSNGNTFLHWYQQKPGKAPKLLIYTVSNRFSGVPSRFSGSGSGTDFTLTISSLQPEDFATYFCSQTTHVPWTFGQGTKVEIKRTVAAPSVFIFPPSDRKLKSGTASVVCLLNNFYPREAKVQWKVDNALQSGNSQESVTEQDSKDSTYSLSSTLTLSKADYEKHKVYACEVTHQGLSSPVTKSFNRGEC
light 2: not shown
notes: also called huCD40-DP47
For B4, the binding result in experiment [2] and in experiment [5] was “no binding (tested: 500 nM)” in each case. The molecule also displayed an EC50 in the experiment with human CD40 [4] of 0.036 nM.
